Data set [1] deals with the molecule itself. The data set can be described thus: TIRF number and brightness (N&B) analysis; live SH-SY5Y cells, plasma membrane; brightness normalised to monomeric EGFP or mCherry; alone or co-transfected.
In data set [2] the target is T1, Arc-mCherry (mouse), Q9WV31.
T1 chain: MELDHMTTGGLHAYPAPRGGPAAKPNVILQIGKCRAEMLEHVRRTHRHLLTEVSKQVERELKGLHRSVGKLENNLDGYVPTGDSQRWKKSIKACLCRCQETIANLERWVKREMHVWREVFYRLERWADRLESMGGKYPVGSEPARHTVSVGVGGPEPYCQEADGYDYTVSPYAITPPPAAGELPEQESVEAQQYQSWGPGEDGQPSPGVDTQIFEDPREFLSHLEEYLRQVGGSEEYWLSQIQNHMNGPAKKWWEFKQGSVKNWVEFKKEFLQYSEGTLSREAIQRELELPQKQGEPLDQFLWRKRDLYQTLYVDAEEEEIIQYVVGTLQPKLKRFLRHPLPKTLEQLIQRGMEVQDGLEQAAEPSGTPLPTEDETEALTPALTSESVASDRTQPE
The data set is described as above. The note with it: remark: other sources report otherwise.

In data set [3] the target is T2, His-PICK1 (human, UniProt Q9NRD5 1-415).
T2 construct: also called recombinant His-PICK1; source: E. coli BL21-Codon(+) DE3, pQE-80L, purified (HisTrap; SEC when needed)
Put plainly: pull-down; soluble His-PICK1 (1, 5 and 10 µM) with GST-Arc (1 µM) or GST (1 µM) bound to glutathione-agarose, or resin alone; 20 mM HEPES pH 7.5, 100 mM NaCl, 1 mM DTT, 1 h at 4 °C; bound PICK1 from SDS-PAGE and BCA assay. The following applies: both partners purified.

Data set [4] concerns the target T1, Arc-mCherry (mouse), Q9WV31. Put plainly: photon counting histogram (PCH) brightness analysis; live SH-SY5Y cells, cytosol; brightness normalised to monomeric EGFP or mCherry; co-transfected with the other construct or with the free fluorescent protein; 20 to 1,500 nM. The note with it: remark: other sources report otherwise.

This note sets out measurements from publication PMC6168463, “Arc/Arg3.1 has an activity-regulated interaction with PICK1 that results in altered spatial dynamics” (Scientific Reports, 2018).

B1: EGFP-PICK1 (natural protein, human, UniProt Q9NRD5 1-415, looked up)
chain: MFADLDYDIEEDKLGIPTVPGKVTLQKDAQNLIGISIGGGAQYCPCLYIVQVFDNTPAALDGTVAAGDEITGVNGRSIKGKTKVEVAKMIQEVKGEVTIHYNKLQADPKQGMSLDIVLKKVKHRLVENMSSGTADALGLSRAILCNDGLVKRLEELERTAELYKGMTEHTKNLLRAFYELSQTHRAFGDVFSVIGVREPQPAASEAFVKFADAHRSIEKFGIRLLKTIKPMLTDLNTYLNKAIPDTRLTIKKYLDVKFEYLSYCLKVKEMDDEEYSCIALGEPLYRVSTGNYEYRLILRCRQEARARFSQMRKDVLEKMELLDQKHVQDIVFQLQRLVSTMSKYYNDCYAVLRDADVFPIEVDLAHTTLAYGLNQEEFTDGEEEEEEEDTAAGEPSRDTRGAAGPLDKGGSWCDS
notes: PICK1, 'a human variant of PICK1' ligated to EGFP at the N terminus; source: SH-SY5Y cells, transfected, in live cells; not shown: EGFP, N-terminal, kept
One may read the stoichiometry N as a count of units in the complex or per binding partner. Take B1: the “stoichiometry N” value in data set [1] was 2.

B2: GST-Arc (natural protein, mouse, UniProt Q9WV31 1-396, looked up)
chain: MELDHMTTGGLHAYPAPRGGPAAKPNVILQIGKCRAEMLEHVRRTHRHLLTEVSKQVERELKGLHRSVGKLENNLDGYVPTGDSQRWKKSIKACLCRCQETIANLERWVKREMHVWREVFYRLERWADRLESMGGKYPVGSEPARHTVSVGVGGPEPYCQEADGYDYTVSPYAITPPPAAGELPEQESVEAQQYQSWGPGEDGQPSPGVDTQIFEDPREFLSHLEEYLRQVGGSEEYWLSQIQNHMNGPAKKWWEFKQGSVKNWVEFKKEFLQYSEGTLSREAIQRELELPQKQGEPLDQFLWRKRDLYQTLYVDAEEEEIIQYVVGTLQPKLKRFLRHPLPKTLEQLIQRGMEVQDGLEQAAEPSGTPLPTEDETEALTPALTSESVASDRTQPE
notes: Arc (activity-regulated cytoskeleton-associated protein, Arg3.1), mouse cDNA; also called Arg3.1; Activity-regulated cytoskeleton-associated protein; source: pGST.parallel 1 vector, purified (glutathione agarose resin, eluted with 50 mM glutathione; SEC when needed)
B2 registered a stoichiometry N in data set [2] of 2. The binding result in data set [3] is reported as “binds”. The same molecule gave a normalized brightness (Norm. ε) in data set [4] of 1.37.
